{"source": "paper doi:10.1101/2023.06.15.545204", "target": "BST4-mScarlet-I (Chlamydomonas reinhardtii)", "test": "Slimfield microscopy with single particle tracking and molecular counting", "data": [{"substance": "BST4-mScarlet-I (natural protein)", "values": [{"measurement": "interval between stoichiometry peaks", "value": 5}, {"measurement": "stoichiometry N", "value": 5}]}]}
